Tested on: Bacillus subtilis DB104 (SP-AmyQ fusion secretion)
Assay: AmyQ secretion efficiency, weighted average sort bin (1 = best secretion, 10 = worst) (bin number (weighted average, 1-10)); higher = lower secretion efficiency
In short: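 In this assay, the secretion score is defined as the average bin number weighted by read frequency, normalised to beads per bin, with low-abundance sequences not counted. B. subtilis DB104 cells expressing mature AmyQ behind designed signal peptides (amyE-integrated) were enclosed with fluorescein-starch in ~65 nL alginate beads at about 0.3 cells per bead. Beads grew about 13 h at room temperature, were stained with nile red, and occupied beads went into 10 equally populated green/red fluorescence ratio bins by large-particle flow cytometry, whose amplicons were Illumina-sequenced.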

## MPYLKRVLLLLVTGLFMSLFAVTATASAQTK
  AmyQ secretion efficiency: 1.71

## MPYLKRVLLLLVTGLFMSLFAVTATASARRR
  AmyQ secretion efficiency: 7.69

## MPYLKRVLLLLVTGLFMSLFAVTATASCQTG
  AmyQ secretion efficiency: 1.26

## MPYLKRVLLLLVTGLFMSLFAVTATASDQTG
  AmyQ secretion efficiency: 1.01

## MPYLKRVLLLLVTGLFMSLFAVTATASEQTG
  AmyQ secretion efficiency: 1.36

## MPYLKRVLLLLVTGLFMSLFAVTATASFQTG
  AmyQ secretion efficiency: 2.53

## MPYLKRVLLLLVTGLFMSLFAVTATASGQTG
  AmyQ secretion efficiency: 1.24

## MPYLKRVLLLLVTGLFMSLFAVTATASHQTG
  AmyQ secretion efficiency: 1.34

## MPYLKRVLLLLVTGLFMSLFAVTATASIQTG
  AmyQ secretion efficiency: 1.67

## MPYLKRVLLLLVTGLFMSLFAVTATASKQTG
  AmyQ secretion efficiency: 1.26

## MPYLKRVLLLLVTGLFMSLFAVTATASLQTG
  AmyQ secretion efficiency: 1.81

## MPYLKRVLLLLVTGLFMSLFAVTATASMQTG
  AmyQ secretion efficiency: 1.29

## MPYLKRVLLLLVTGLFMSLFAVTATASNQTG
  AmyQ secretion efficiency: 1.29

## MPYLKRVLLLLVTGLFMSLFAVTATASPQTG
  AmyQ secretion efficiency: 1.86

## MPYLKRVLLLLVTGLFMSLFAVTATASQQTG
  AmyQ secretion efficiency: 1.51

## MPYLKRVLLLLVTGLFMSLFAVTATASRQTG
  AmyQ secretion efficiency: 1.19

## MPYLKRVLLLLVTGLFMSLFAVTATASSQTG
  AmyQ secretion efficiency: 1.19

## MPYLKRVLLLLVTGLFMSLFAVTATASTQTG
  AmyQ secretion efficiency: 1.44

## MPYLKRVLLLLVTGLFMSLFAVTATASVQTG
  AmyQ secretion efficiency: 1.13

## MPYLKRVLLLLVTGLFMSLFAVTATASWQTG
  AmyQ secretion efficiency: 2.84

## MPYLKRVLLLLVTGLFMSLFAVTATASYQTG
  AmyQ secretion efficiency: 1.77

## MPYLKRVLLLLVTGLFMSLFAVTATCSAQTG
  AmyQ secretion efficiency: 1.27

## MPYLKRVLLLLVTGLFMSLFAVTATDSAQTG
  AmyQ secretion efficiency: 6.72

## MPYLKRVLLLLVTGLFMSLFAVTATESAQTG
  AmyQ secretion efficiency: 4.4

## MPYLKRVLLLLVTGLFMSLFAVTATFSAQTG
  AmyQ secretion efficiency: 4.6

## MPYLKRVLLLLVTGLFMSLFAVTATGSAQTG
  AmyQ secretion efficiency: 1.13

## MPYLKRVLLLLVTGLFMSLFAVTATHSAQTG
  AmyQ secretion efficiency: 6.96

## MPYLKRVLLLLVTGLFMSLFAVTATISAQTG
  AmyQ secretion efficiency: 1.51

## MPYLKRVLLLLVTGLFMSLFAVTATKSAQTG
  AmyQ secretion efficiency: 4.38

## MPYLKRVLLLLVTGLFMSLFAVTATLSAQTG
  AmyQ secretion efficiency: 1.38

## MPYLKRVLLLLVTGLFMSLFAVTATMSAQTG
  AmyQ secretion efficiency: 1.29

## MPYLKRVLLLLVTGLFMSLFAVTATPSAQTG
  AmyQ secretion efficiency: 4.75

## MPYLKRVLLLLVTGLFMSLFAVTATQSAQTG
  AmyQ secretion efficiency: 3.84

## MPYLKRVLLLLVTGLFMSLFAVTATRSAQTG
  AmyQ secretion efficiency: 3.54

## MPYLKRVLLLLVTGLFMSLFAVTATSSAQTG
  AmyQ secretion efficiency: 1.26

## MPYLKRVLLLLVTGLFMSLFAVTATVSAQTG
  AmyQ secretion efficiency: 1.43

## MPYLKRVLLLLVTGLFMSLFAVTATWSAQTG
  AmyQ secretion efficiency: 6.1

## MPYLKRVLLLLVTGLFMSLFAVTATYSAQTG
  AmyQ secretion efficiency: 3.91

## MPYLKRVLLLLVTGLFMSLFEEEATASAQTG
  AmyQ secretion efficiency: 1.12

## MPYLKRVLLLLVTGLFMSLFFLIAVTATASAQTG
  AmyQ secretion efficiency: 1.09

## MPYLKRVLLLLVTGLFMSLFGDTATASAQTG
  AmyQ secretion efficiency: 1.23

## MPYLKRVLLLLVTGLFMSLFIFLIVISAVTATASAQTG
  AmyQ secretion efficiency: 1.25

## MPYLKRVLLLLVTGLFMSLFRKKATASAQTG
  AmyQ secretion efficiency: 7.42

## MPYLKRVLLLLVTGLFMSLFRKRRKRASAQTG
  AmyQ secretion efficiency: 6.94

## MPYLKRVRKLLVTGLFMSLFAVTATASAQTG
  AmyQ secretion efficiency: 1.73

## MPYLKRVRRRRRRGLFMSLFAVTATASAQTG
  AmyQ secretion efficiency: 6.28

## MPYLKRVRRRRVTGLFMSLFAVTATASAQTG
  AmyQ secretion efficiency: 2.37

## MPYLMMVLLLLVTGLFMSLFAVTATASAQTG
  AmyQ secretion efficiency: 1.47

## MPYRKRRRVLLLLVTGLFMSLFAVTATASAQTG
  AmyQ secretion efficiency: 1.13

## MQKKWRRRLIQFAVMLSVLSTFTYSASAVGV
  AmyQ secretion efficiency: 3.56

## MQLGKKLSVAVAASFMSLSISLPGVQAAEG
  AmyQ secretion efficiency: 2.25

## MQNRLFRVCFLAALIMAFTLPNSVYAQKP
  AmyQ secretion efficiency: 1.12

## MQRKRLLTIYIMLLGLIAWFPGAAQAEEK
  AmyQ secretion efficiency: 1.93

## MQRRQRYRQRVIVIAALITFNVRNASPG
  AmyQ secretion efficiency: 8.93

## MRFTKFMSIVVGFLSVLGLAAVFPLTAQAEKA
  AmyQ secretion efficiency: 2.72

## MRFTKFTFIMITVVGFLSVLGLAAVFPLTAQAEKA
  AmyQ secretion efficiency: 1.81

## MRFTKKKTFLSVLGLAAVFPLTAQAEKA
  AmyQ secretion efficiency: 3.64

## MRFTKNVVGFLSVLGLAAVFPLTAQAEKA
  AmyQ secretion efficiency: 2.41

## MRFTKTRGQRQVLGLAAVFPLTAQAEKA
  AmyQ secretion efficiency: 7.51

## MRFTKTVGFLSVLGLAAVFPLTAQAEKA
  AmyQ secretion efficiency: 2.59

## MRFTKVRRKKSVLGLAAVFPLTAQAEKA
  AmyQ secretion efficiency: 7.85

## MRFTKVRRRRKKLGLAAVFPLTAQAEKA
  AmyQ secretion efficiency: 7.25

## MRFTKVVGFLSVLGLAADEDLTAQAEKA
  AmyQ secretion efficiency: 3.78
